Source: paper doi:10.1101/2020.11.13.381095 (bioRxiv, 2020)

T1: adrenodoxin (human, UniProt P10109 61-184)
T1 sequence (looked up): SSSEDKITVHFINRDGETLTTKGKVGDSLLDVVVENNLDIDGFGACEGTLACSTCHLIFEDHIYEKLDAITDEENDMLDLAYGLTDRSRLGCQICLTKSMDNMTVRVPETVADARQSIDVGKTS

B1: cytochrome P450 CYP11B1 (11ß-hydroxylase) (enzyme, human)
chain: VPRTVLPFEAMPRRPGNRWLRLLQIWREQGYEDLHLEVHQTFQELGPIFRYDLGGAGMVCVMLPEDVEKLQQVDSLHPHRMSLEPWVAYRQHRGHKCGVFLLNGPEWRFNRLRLNPEVLSPNAVQRFLPMVDAVARDFSQALKKKVLQNARGSLTLDVQPSIFHYTIEASNLALFGERLGLVGHSPSSASLNFLHALEVMFKSTVQLMFMPRSLSRWTSPKVWKEHFEAWDCIFQYGDNCIQKIYQELAFSRPQQYTSIVAELLLNAELSPDAIKANSMELTAGSVDTTVFPLLMTLFELARNPNVQQALRQESLAAAASISEHPQKATTELPLLRAALKETLRLYPVGLFLERVASSDLVLQNYHIPAGTLVRVFLYSLGRNPALFPRPERYNPQRWLDIRGSGRNFYHVPFGFGMRQCLGRRLAEAEMLLLLHHVLKHLQVETLTQEDIKMVYSFILRPSMFPLLTFRAIN
B2: cytochrome P450 CYP11B2 (aldosterone synthase) (enzyme, human, UniProt P19099 25-503, looked up)
chain: GTRAARAPRTVLPFEAMPQHPGNRWLRLLQIWREQGYEHLHLEMHQTFQELGPIFRYNLGGPRMVCVMLPEDVEKLQQVDSLHPCRMILEPWVAYRQHRGHKCGVFLLNGPEWRFNRLRLNPDVLSPKAVQRFLPMVDAVARDFSQALKKKVLQNARGSLTLDVQPSIFHYTIEASNLALFGERLGLVGHSPSSASLNFLHALEVMFKSTVQLMFMPRSLSRWISPKVWKEHFEAWDCIFQYGDNCIQKIYQELAFNRPQHYTGIVAELLLKAELSLEAIKANSMELTAGSVDTTAFPLLMTLFELARNPDVQQILRQESLAAAASISEHPQKATTELPLLRAALKETLRLYPVGLFLERVVSSDLVLQNYHIPAGTLVQVFLYSLGRNAALFPRPERYNPQRWLDIRGSGRNFHHVPFGFGMRQCLGRRLAEAEMLLLLHHVLKHFLVETLTQEDIKMVYSFILRPGTSPLLTFRAIN
B3: cytochrome P450 CYP11A1 (cholesterol side chain cleavage enzyme) (enzyme, human)
chain: STRSPRPFNEIPSPGDNGWLNLYHFWRETGTHKVHLHHVQNFQKYGPIYREKLGNVESVYVIDPEDVALLFKSEGPNPERFLIPPWVAYHQYYQRPIGVLLKKSAAWKKDRVALNQEVMAPEATKNFLPLLDAVSRDFVSVLHRRIKKAGSGNYSGDISDDLFRFAFESITNVIFGERQGMLEEVVNPEAQRFIDAIYQMFHTSVPMLNLPPDLFRLFRTKTWKDHVAAWDVIFSKADIYTQNFYWELRQKGSVHHDYRGILYRLLGDSKMSFEDIKANVTEMLAGGVDTTSMTLQWHLYEMARNLKVQDMLRAEVLAARHQAQGDMATMLQLVPLLKASIKETLRLHPISVTLQRYLVNDLVLRDYMIPAKTLVQVAIYALGREPTFFFDPENFDPTRWLSKDKNITYFRNLGFGWGVRQCLGRRIAELEMTIFLINMLENFRVEIQHLSDVGTTFNLILMPEKPISFTFWPFNQEATQQ

What was measured:
Test in all cases: SPR
adrenodoxin [1] = target: T1, adrenodoxin
adrenodoxin [2] = target: T1, adrenodoxin; remark: listed apart in the source
adrenodoxin [3] = target: T1, adrenodoxin; remark: listed apart in the source
adrenodoxin [4] = target: T1, adrenodoxin; remark: listed apart in the source
adrenodoxin [5] = target: T1, adrenodoxin; remark: listed apart in the source
adrenodoxin [6] = target: T1, adrenodoxin; remark: listed apart in the source
adrenodoxin [7] = target: T1, adrenodoxin; remark: listed apart in the source
adrenodoxin [8] = target: T1, adrenodoxin; remark: listed apart in the source
adrenodoxin [9] = target: T1, adrenodoxin; remark: listed apart in the source

Binder | fold increase of koff with 11-deoxycortisol against ligand-free (adrenodoxin [1]) [fold] | fold increase of kon with 11-deoxycortisol against ligand-free (adrenodoxin [1]) [fold] | fold increase of Kd with 11-deoxycorticosterone against ligand-free (adrenodoxin [2]) [fold] | fold increase of koff with 11-deoxycorticosterone against ligand-free (adrenodoxin [2]) [fold] | fold increase of kon with 11-deoxycorticosterone against ligand-free (adrenodoxin [2]) [fold] | fold change of Kd with corticosterone against ligand-free (adrenodoxin [3]) [fold] | fold increase of Kd with 11-deoxycortisol against ligand-free (adrenodoxin [1]) [fold] | fold change of koff with cholesterol against ligand-free (adrenodoxin [4]) [fold] | fold increase of kon with cholesterol against ligand-free (adrenodoxin [4]) [fold] | fold increase of Kd with pregnenolone against cholesterol (adrenodoxin [5]) [fold] | fold decrease of kon with 25-hydroxycholesterol against ligand-free (adrenodoxin [6]) [fold] | fold increase of Kd with 25-hydroxycholesterol against ligand-free (adrenodoxin [6]) [fold] | fold decrease of kon with 20S-hydroxycholesterol against ligand-free (adrenodoxin [7]) [fold] | fold increase of Kd with 20S-hydroxycholesterol against ligand-free (adrenodoxin [7]) [fold] | fold increase of Kd with 22R-hydroxycholesterol against cholesterol (adrenodoxin [8]) [fold] | fold decrease of kon with 20R,22R-dihydroxycholesterol against ligand-free (adrenodoxin [9]) [fold] | fold increase of Kd with 20R,22R-dihydroxycholesterol against cholesterol (adrenodoxin [9]) [fold] | fold increase of Kd with 20R,22R-dihydroxycholesterol against ligand-free (adrenodoxin [9]) [fold] | fold increase of koff with 20R,22R-dihydroxycholesterol against ligand-free (adrenodoxin [9]) [fold]
B1 | ~3.2 | 4 | 2.4 | 4.4 | ~2 | – | – | – | – | – | – | – | – | – | – | – | – | – | –
B2 | – | – | 11 | 7 | – | 1.7 | 4.7 | – | – | – | – | – | – | – | – | – | – | – | –
B3 | – | – | – | – | – | – | – | ~1.5 | 4 | ~21 | 2 | 4.6 | 2 | 3.1 | 4 | 2 | ~10 | ~3.4 | ~1.8
